In patent US20190100597A1 (IGM BIOSCIENCES, published 2019):

T1: human CD20 on CD20-expressing cell lines (human, UniProt P11836 1-297)
T1 sequence: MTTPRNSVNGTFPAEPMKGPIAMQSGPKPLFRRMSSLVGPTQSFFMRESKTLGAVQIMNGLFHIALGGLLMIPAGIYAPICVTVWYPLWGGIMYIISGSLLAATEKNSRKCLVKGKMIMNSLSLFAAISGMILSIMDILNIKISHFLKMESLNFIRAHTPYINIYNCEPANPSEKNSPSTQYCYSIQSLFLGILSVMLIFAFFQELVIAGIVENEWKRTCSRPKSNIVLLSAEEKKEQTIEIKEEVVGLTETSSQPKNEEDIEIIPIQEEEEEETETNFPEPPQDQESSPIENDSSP

B1: Rituxan IgM+V15J (bispecific anti-CD20 x anti-CD3 IgM pentamer) (bispecific antibody)
heavy: QVQLQQPGAELVKPGASVKMSCKASGYTFTSYNMHWVKQTPGRGLEWIGAIYPGNGDTSYNQKFKGKATLTADKSSSTAYMQLSSLTSEDSAVYYCARSTYYGGDWYFNVWGAGTTVTVSSGSASAPTLFPLVSCENSPSDTSSVAVGCLAQDFLPDSITFSWKYKNNSDISSTRGFPSVLRGGKYAATSQVLLPSKDVMQGTDEHVVCKVQHPNGNKEKNVPLPVIAELPPKVSVFVPPRDGFFGNPRKSKLICQATGFSPRQIQVSWLREGKQVGSGVTTDQVQAEAKESGPTTYKVTSTLTIKESDWLSQSMFTCRVDHRGLTFQQNASSMCVPDQDTAIRVFAIPPSFASIFLTKSTKLTCLVTDLTTYDSVTISWTRQNGEAVKTHTNISESHPNATFSAVGEASICEDDWNSGERFTCTVTHTDLPSPLKQTISRPKGVALHRPDVYLLPPAREQLNLRESATITCLVTGFSPADVFVQWMQRGQPLSPEKYVTSAPMPEPQAPGRYFAHSILTVSEEEWNTGETYTCVVAHEALPNRVTERTVDKSTGKPTLYNVSLVMSDTAGTCY
light: QIVLSQSPAILSASPGEKVTMTCRASSSVSYIHWFQQKPGSSPKPWIYATSNLASGVPVRFSGSGSGTSYSLTISRVEAEDAATYYCQQWTSNPPTFGGGTKLEIKRTVAAPSVFIFPPSDEQLKSGTASVVCLLNNFYPREAKVQWKVDNALQSGNSQESVTEQDSKDSTYSLSSTLTLSKADYEKHKVYACEVTHQGLSSPVTKSFNRGEC
chain: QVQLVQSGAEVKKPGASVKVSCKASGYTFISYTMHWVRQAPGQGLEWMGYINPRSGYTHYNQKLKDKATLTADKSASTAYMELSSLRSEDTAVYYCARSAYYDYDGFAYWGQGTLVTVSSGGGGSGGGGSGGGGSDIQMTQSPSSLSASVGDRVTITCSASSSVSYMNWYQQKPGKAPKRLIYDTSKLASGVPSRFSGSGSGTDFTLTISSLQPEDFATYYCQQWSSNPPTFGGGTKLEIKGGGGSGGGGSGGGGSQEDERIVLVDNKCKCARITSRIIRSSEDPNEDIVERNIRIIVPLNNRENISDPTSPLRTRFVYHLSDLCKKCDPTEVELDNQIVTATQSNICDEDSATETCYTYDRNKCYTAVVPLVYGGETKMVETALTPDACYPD
B2: rituximab (IgG1) (antibody, V domains shown)
VH: QVQLQQPGAELVKPGASVKMSCKASGYTFTSYNMHWVKQTPGRGLEWIGAIYPGNGDTSYNQKFKGKATLTADKSSSTAYMQLSSLTSEDSAVYYCARSTYYGGDWYFNVWGAGTTVTVSA
VL: QIVLSQSPAILSASPGEKVTMTCRASSSVSYIHWFQQKPGSSPKPWIYATSNLASGVPVRFSGSGSGTSYSLTISRVEAEDAATYYCQQWTSNPPTFGGGTKLEIKR
B3: 1.5.3 IgM+V15J (bispecific anti-CD20 x anti-CD3 IgM pentamer) (bispecific antibody)
heavy: EVQLVQSGAEVKKPGESLKISCKGSGYSFTSYWIGWVRQMPGKGLEWMGIIYPGDSDTRYSPSFQGQVTISADKSITTAYLQWSSLKASDTAMYYCARHPSYGSGSPNFDYWGQGTLVTVSSGSASAPTLFPLVSCENSPSDTSSVAVGCLAQDFLPDSITFSWKYKNNSDISSTRGFPSVLRGGKYAATSQVLLPSKDVMQGTDEHVVCKVQHPNGNKEKNVPLPVIAELPPKVSVFVPPRDGFFGNPRKSKLICQATGFSPRQIQVSWLREGKQVGSGVTTDQVQAEAKESGPTTYKVTSTLTIKESDWLSQSMFTCRVDHRGLTFQQNASSMCVPDQDTAIRVFAIPPSFASIFLTKSTKLTCLVTDLTTYDSVTISWTRQNGEAVKTHTNISESHPNATFSAVGEASICEDDWNSGERFTCTVTHTDLPSPLKQTISRPKGVALHRPDVYLLPPAREQLNLRESATITCLVTGFSPADVFVQWMQRGQPLSPEKYVTSAPMPEPQAPGRYFAHSILTVSEEEWNTGETYTCVVAHEALPNRVTERTVDKSTGKPTLYNVSLVMSDTAGTCY
light: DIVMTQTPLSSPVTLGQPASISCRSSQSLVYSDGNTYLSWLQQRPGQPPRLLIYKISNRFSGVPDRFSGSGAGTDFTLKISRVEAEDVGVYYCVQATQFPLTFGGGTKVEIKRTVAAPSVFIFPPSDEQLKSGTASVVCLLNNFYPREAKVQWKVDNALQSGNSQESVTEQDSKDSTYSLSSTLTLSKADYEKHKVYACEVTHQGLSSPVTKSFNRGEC
chain: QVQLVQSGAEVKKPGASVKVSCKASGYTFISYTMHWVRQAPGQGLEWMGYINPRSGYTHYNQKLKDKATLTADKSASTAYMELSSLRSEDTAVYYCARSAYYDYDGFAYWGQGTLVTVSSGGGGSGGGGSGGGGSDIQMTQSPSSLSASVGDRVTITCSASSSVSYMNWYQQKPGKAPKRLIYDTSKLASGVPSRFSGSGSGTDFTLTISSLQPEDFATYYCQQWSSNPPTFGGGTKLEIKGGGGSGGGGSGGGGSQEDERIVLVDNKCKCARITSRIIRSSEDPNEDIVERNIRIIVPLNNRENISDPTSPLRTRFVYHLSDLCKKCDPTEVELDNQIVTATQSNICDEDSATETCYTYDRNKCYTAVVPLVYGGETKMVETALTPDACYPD
B4: 1.5.3 IgG (IgG1) (antibody, V domains shown)
VH: EVQLVQSGAEVKKPGESLKISCKGSGYSFTSYWIGWVRQMPGKGLEWMGIIYPGDSDTRYSPSFQGQVTISADKSITTAYLQWSSLKASDTAMYYCARHPSYGSGSPNFDYWGQGTLVTVSS
VL: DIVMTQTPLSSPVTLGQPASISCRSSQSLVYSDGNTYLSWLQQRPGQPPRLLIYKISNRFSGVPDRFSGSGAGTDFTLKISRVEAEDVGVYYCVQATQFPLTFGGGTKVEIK

Key:
Assay in all cases: cell-based or functional assay
[1] = target: T1, human CD20 on CD20-expressing cell lines
[2] = target: T1, human CD20 on CD20-expressing cell lines; remark: listed apart in the source
[3] = target: T1, human CD20 on CD20-expressing cell lines; remark: listed apart in the source
[4] = target: T1, human CD20 on CD20-expressing cell lines; remark: listed apart in the source

Row | Binder | T-cell directed B-cell killing, LDH release, EC50 on DB cells [1] [µg/mL] | T-cell directed B-cell killing, LDH release, EC50 on DOHH2 cells [1] [µg/mL] | T-cell directed B-cell killing, LDH release, EC50 on Z-138 cells [1] [µg/mL] | KILR cytotoxicity assay, potency relative to the 1.5.3 IgM antibodies [2] [fold less potent] | CDC (IC50) on Raji cells [3] [µg/mL] | CDC EC50 on DOHH-2 cells [4] [nM] | CDC EC50 on Z-138 cells [4] [nM] | T-cell directed B-cell killing, LDH release, EC50 on DB cells (molar) [2] [nM]
1 | B1 | 0.0005 | 0.013 | 0.03 | – | – | – | – | –
2 | B2 | – | – | – | ≥ 30 | > 50 | 22 | > 100 | –
3 | B3 | 0.0004 | 0.012 | 0.033 | – | – | – | – | 0.0004
4 | B4 | – | – | – | – | – | 4.6 | > 100 | –
